B1: Brefeldin A-inhibited guanine nucleotide-exchange protein 2 (Homo sapiens), Q9Y6D5 (parent)
chain: MQESQTKSMFVSRALEKILADKEVKRPQHSQLRRACQVALDEIKAEIEKQRLGTAAPPKANFIEADKYFLPFELACQSKSPRVVSTSLDCLQKLIAYGHITGNAPDSGAPGKRLIDRIVETICSCFQGPQTDEGVQLQIIKALLTAVTSPHIEIHEGTILQTVRTCYNIYLASKNLINQTTAKATLTQMLNVIFTRMENQVLQEARELEKPIQSKPQSPVIQAAAVSPKFVRLKHSQAQSKPTTPEKTDLTNGEHARSDSGKVSTENGDAPRERGSSLSGTDDGAQEVVKDILEDVVTSAIKEAAEKHGLTEPERVLGELECQECAIPPGVDENSQTNGIADDRQSLSSADNLESDAQGHQVAARFSHVLQKDAFLVFRSLCKLSMKPLGEGPPDPKSHELRSKVVSLQLLLSVLQNAGPVFRTHEMFINAIKQYLCVALSKNGVSSVPDVFELSLAIFLTLLSNFKMHLKMQIEVFFKEIFLNILETSTSSFEHRWMVIQTLTRICADAQCVVDIYVNYDCDLNAANIFERLVNDLSKIAQGRSGHELGMTPLQELSLRKKGLECLVSILKCMVEWSKDLYVNPNHQTSLGQERLTDQEIGDGKGLDMARRCSVTSMESTVSSGTQTTVQDDPEQFEVIKQQKEIIEHGIELFNKKPKRGIQFLQEQGMLGTSVEDIAQFLHQEERLDSTQVGDFLGDSARFNKEVMYAYVDQLDFCEKEFVSALRTFLEGFRLPGEAQKIDRLMEKFAARYIECNQGQTLFASADTAYVLAYSIIMLTTDLHSPQVKNKMTKEQYIKMNRGINDSKDLPEEYLSSIYEEIEGKKIAMKETKELTIATKSTKQNVASEKQRRLLYNLEMEQMAKTAKALMEAVSHAKAPFTSATHLDHVRPMFKLVWTPLLAAYSIGLQNCDDTEVASLCLEGIRCAIRIACIFGMQLERDAYVQALARFSLLTASSSITEMKQKNIDTIKTLITVAHTDGNYLGNSWHEILKCISQLELAQLIGTGVKTRYLSGSGREREGSLKGHTLAGEEFMGLGLGNLVSGGVDKRQMASFQESVGETSSQSVVVAVDRIFTGSTRLDGNAIVDFVRWLCAVSMDELASPHHPRMFSLQKIVEISYYNMNRIRLQWSRIWHVIGDHFNKVGCNPNEDVAIFAVDSLRQLSMKFLEKGELANFRFQKDFLRPFEHIMKKNRSPTIRDMAIRCIAQMVNSQAANIRSGWKNIFAVFHQAASDHDGNIVELAFQTTCHIVTTIFQHHFPAAIDSFQDAVKCLSEFACNAAFPDTSMEAIRLIRFCGKYVSERPRVLQEYTSDDMNVAPGDRVWVRGWFPILFELSCIINRCKLDVRTRGLTVMFEIMKSYGHTFEKHWWQDLFRIVFRIFDNMKLPEQLSEKSEWMTTTCNHALYAICDVFTQFYEALNEVLLSDVFAQLQWCVKQDNEQLARSGTNCLENLVISNGEKFSPEVWDETCNCMLDIFKTTIPHVLLTWRPVGMEEDSSEKHLDVDLDRQSLSSIDKNPSERGQSQLSNPTDDSWKGRPYANQKLFASLLIKCVVQLELIQTIDNIVFYPATSKKEDAEHMVAAQQDTLDADIHIETEDQGMYKYMSSQHLFKLLDCLQESHSFSKAFNSNYEQRTVLWRAGFKGKSKPNLLKQETSSLACCLRILFRMYVDENRRDSWEEIQQRLLTVCSEALAYFITVNSESHREAWTSLLLLLLTKTLKINDEKFKAHASMYYPYLCEIMQFDLIPELRAVLRKFFLRIGVVYKIWIPEEPSQVPAALSPVW

Variants of: B1
Details: with kap3_human PRKAR2B

Row | effect of a mutation on the interaction | Variant
1 | disrupting interaction | V289W
2 | disrupting interaction | V534W

Reference: IntAct's records for PubMed 18625701
